To fix the notation:
B1: SBM2 (Gli3 peptide, SPOP-binding motif 2) (peptide)
peptide: Ac-EKAVASSTTSNEDES-NH2
B2: His6-Gli3^1-90 (N-terminal His6 tag left on) (domain or fragment, UniProt P10071 1-90, looked up)
chain: MEAQSHSSTTTEKKKVENSIVKCSTRTDVSEKAVASSTTSNEDESPGQTYHRERRNAITMQPQNVQGLSKVSEEPSTSSDERASLIKKEI
B3: Gli3^1-90: 90-residue N-terminal Gli3 fragment, recombinant, intrinsically disordered (protein)
chain: B2 chain
modifications: left off: His6, N-terminal, cleaved
B4: SBM1 (Gli3 peptide, SPOP-binding motif 1) (peptide)
peptide: Ac-MEAQSHSSTTTEKK-NH2
B5: SBM3 (Gli3 peptide, SPOP-binding motif 3) (peptide)
peptide: Ac-KVSEEPSTSSDERA-NH2
B6: F-pPuc (N-terminally fluorescently labeled Puc peptide) (peptide)
peptide: ENLACDEVTSTTSSST
modifications: not fully specified; fluorescein on the N-terminus; C-terminal amide
B7: pPuc (peptide derived from the Drosophila melanogaster protein Puckered, residues 91-106) (peptide)
peptide: Ac-ENLACDEVTSTTSSST-NH2
B8: SPOP^MATH (MATH domain of Speckle-type POZ protein, residues 28-166) (domain or fragment, UniProt O43791 28-166, looked up)
chain: KVVKFSYMWTINNFSFCREEMGEVIKSSTFSSGANDKLKWCLRVNPKGLDEESKDYLSLYLLLVSCPKSEVRAKFKFSILNAKGEETKAMESQRAYRFVQGKDWGFKKFIRRDFLLDEANGLLPDDKLTLFCEVSVVQD

The target of assay [1] is B8. Nature of the assay: fluorescence polarisation.
For assay [2], the target named is T1, SPOP^MATH-BTB (SPOP construct encompassing residues 28-337) (UniProt O43791 28-337). Nature of the assay: BLI.
Assay [3] concerns the target SPOP^MATH-BTB-BACK (SPOP construct encompassing residues 28-359) (UniProt O43791 28-359). Nature of the assay: BLI.
Assay [4] addresses B8. Put plainly: BLI.
In the next assay the target is SPOP^MATH (Homo sapiens, UniProt O43791). Put plainly: Sedimentation velocity AUC, stoichiometry of Gli3^1-90/SPOP^MATH complex. It is filed as binding. Conditions: SV AUC, excess SPOP^MATH (Gli3^1-90 156 μM / SPOP^MATH 525 μM), pH 6.0, 20 °C, size-and-shape distribution analysis.
Assay [5] addresses T1, SPOP^MATH-BTB (SPOP construct …). Nature of the assay: fluorescence polarisation.
The target in assay [6] is B8. Put plainly: fluorescence polarisation. This is another data set of the same source.
For assay [7], the target named is T2, Gli3^1-90 (90-residue N-terminal Gli3 fragment), His tag cleaved (UniProt P10071 1-90).
T2 sequence (looked up): B2 chain
Nature of the assay: AUC.

As to B1, the dissociation constant Kd in assay [1] stood at 80 µM.
Take B2: the figures for the Kd in assay [2], in assay [3] and in assay [4] were 28 µM, 1.5 µM and 21 µM, respectively.
With B3, in the assay with SPOP^MATH, the “number of MATH domain molecules bound to 1 Gli3^1-90 molecule” value is reported as “up to 3”.
With B4, the dissociation constant Kd in assay [1] is roughly 4100 µM.
On the same count and under the same terms, the result for B5 reads 560 µM.
Consider B6, for which the dissociation constant Kd in assay [5] and in assay [6] was roughly 6 µM throughout.
In turn, B7 displayed a Kd in assay [1] of 7.7 µM.
Consider B8, for which the “stoichiometry N” value in assay [7] is no more than 3 SPOP^MATH per Gli3^1-90.

These data come from article PMC4826287 (Journal of molecular biology, 2015).
